B2: CpoB^TPR (CpoB^139-263), C-terminal TetratricoPeptide Repeat domain of CpoB (domain or fragment, E. coli, UniProt P45955 139-263, looked up)
chain: SGNANTDYNAAIALVQDKSRQDDAMVAFQNFIKNYPDSTYLPNANYWLGQLNYNKGKKDDAAYYFASVVKNYPKSPKAADAMFKVGVIMQDKGDTAKAKAVYQQVISKYPGTDGAKQAQKRLNAM
notes: CpoB, E. coli, residues 139-263 (TPR domain), in pET28a with a thrombin cleavage site; In the PRE NMR one of the partners was 15N-labelled, the other spin labelled at random on lysines with OXYL-1-NHS; also called C-terminal TPR domain; source: E. coli BL21(DE3), purified (HisTrap, Superdex 200)

What all share (settings): both partners purified
The target in test [1] is B2. Briefly: paramagnetic relaxation enhancement (PRE) NMR; 100 µM 15N-labelled protein with the partner spin labelled at random on lysines, molar ratio 1:2, 2D HN-HSQC at 850 MHz, 20°C; intensity ratio before and after reduction with sodium ascorbate; done in both directions (15N-CpoB with spin labelled UB2H, 15N-UB2H with spin labelled CpoB).
For test [2], the target named is T1, PBP1B (wild type, PBP1B^46-844) (E. coli, UniProt P02919 46-844).
T1 construct: PBP1B, E. coli, residues 46-844, encoded on pDML924; Immobilised on the SPR chip as in Egan et al. 2014 / Gray et al. 2015; also called WT PBP1B; WT; source: E. coli BL21(DE3), purified (membrane extract, HisTrap, thrombin, HiTrap SP ion exchange)
T1 sequence (looked up): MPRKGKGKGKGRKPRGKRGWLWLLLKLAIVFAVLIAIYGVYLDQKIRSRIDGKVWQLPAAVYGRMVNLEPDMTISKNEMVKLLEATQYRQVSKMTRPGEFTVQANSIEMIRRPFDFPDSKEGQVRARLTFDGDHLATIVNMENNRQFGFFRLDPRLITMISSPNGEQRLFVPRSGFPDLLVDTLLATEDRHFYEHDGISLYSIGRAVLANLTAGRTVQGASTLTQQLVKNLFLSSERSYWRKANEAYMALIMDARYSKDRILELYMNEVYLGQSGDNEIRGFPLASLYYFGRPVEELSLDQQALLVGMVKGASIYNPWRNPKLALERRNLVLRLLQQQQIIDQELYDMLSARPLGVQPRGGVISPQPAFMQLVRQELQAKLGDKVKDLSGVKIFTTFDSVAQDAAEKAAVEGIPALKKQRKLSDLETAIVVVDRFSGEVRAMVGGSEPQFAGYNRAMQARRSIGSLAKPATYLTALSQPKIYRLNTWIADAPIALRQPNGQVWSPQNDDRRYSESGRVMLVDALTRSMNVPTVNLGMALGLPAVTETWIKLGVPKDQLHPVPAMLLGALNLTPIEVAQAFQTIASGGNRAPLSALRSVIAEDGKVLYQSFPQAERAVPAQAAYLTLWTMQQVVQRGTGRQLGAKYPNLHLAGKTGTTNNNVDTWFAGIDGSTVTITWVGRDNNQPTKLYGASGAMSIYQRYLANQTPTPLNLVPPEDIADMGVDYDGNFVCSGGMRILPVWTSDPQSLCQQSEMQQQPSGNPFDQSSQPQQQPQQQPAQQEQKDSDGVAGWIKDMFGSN
Briefly: SPR; PBP1B versions immobilised to the chip surface; CpoB versions injected from either 3.9 nM to 2 μM or from 78 nM to 40 μM; apparent KD by non-linear regression, at least three independent experiments. For orientation: Surface plasmon resonance follows binding to a sensor surface in real time, without labels.

The target in test [3] is T1, PBP1B (wild type, PBP1B^46-844). The test is described as above. This is another data set of the same source.

B1: UB2H domain of PBP1B (PBP1B^108–200) (domain or fragment, E. coli, UniProt P02919 108-200, looked up)
chain: GRMVNLEPDMTISKNEMVKLLEATQYRQVSKMTRPGEFTVQANSIEMIRRPFDFPDSKEGQVRARLTFDGDHLATIVNMENNRQFGFFRLDPR
notes: PBP1B, E. coli, residues 108 to 200 (UB2H domain), in pET28a with a thrombin cleavage site; [13C,15N]- or 15N-labelled for NMR; in the reciprocal PRE experiment spin labelled at random on lysines with OXYL-1-NHS; source: E. coli BL21(DE3), isotopically labelled in M9 medium, purified (HisTrap, Superdex 200)
Consider B1, for which the binding result in test [1] is given as “binds”.

For the molecule B2, the Kd in test [2] was 4.9 µM.

B3: CpoB^TPR+link (CpoB^110-263) (domain or fragment, E. coli, UniProt P45955 110-263, looked up)
chain: STSGDQSGAAASTTPTADAGTANAGAPVKSGNANTDYNAAIALVQDKSRQDDAMVAFQNFIKNYPDSTYLPNANYWLGQLNYNKGKKDDAAYYFASVVKNYPKSPKAADAMFKVGVIMQDKGDTAKAKAVYQQVISKYPGTDGAKQAQKRLNAM
notes: CpoB, E. coli, residues 110-263 (inter-domain linker and TPR domain), in pET28a with a thrombin cleavage site; also called CpoB^TPR version with this linker (res. 110–263); source: E. coli BL21(DE3), purified (HisTrap, Superdex 200)
On to B3, for which the binding result in test [3] is on record as “binds”.

The values are drawn from paper PMC6220978, “Induced conformational changes activate the peptidoglycan synthase PBP1B” (Molecular Microbiology, 2018).
